Results taken from patent US10787640B2, “Producing mesodermal cell types and methods of using the same” (The Board of Trustees of the Leland Stanford Junior …, priority 2015, dated 2020).

Experiments:
hESCs = experiment: Primitive streak (PS) induction from hESCs, qPCR; type: cell-based, human
Description: As aforementioned, after overnight plating, hPSCs were briefly washed (with DMEM/F12) and then differentiated into either anterior primitive streak (30 ng/mL Activin A+4 μM CHIR99021+20 ng/mL FGF2+100 nM PIK90; for subsequent paraxial mesoderm induction) or mid primitive streak ([…] Activin A+40 ng/mL BMP4+6 μM CHIR99021+20 ng/mL FGF2+100 nM PIK90; for subsequent cardiac mesoderm induction) for 24 hrs.
Total cDNA was diluted 1:10-1:30 in H2O and qPCR was performed with the SensiFAST SYBR Lo-ROX Kit (Bioline) with 10 μL qPCR reactions per well in a 384-well plate: 5.0 μL 2× qPCR Master Mix+4.6 μL cDNA (totaling ˜120 ng of cDNA)+0.4 μL of 10 μM primer stock (5 μM forward+5 μM reverse primers). In general, gene-specific primer pairs were tested for (1) specificity of amplicon amplification (only one peak on a dissociation curve) and (2) linearity of amplicon amplification (linear detection of gene expression in cDNA samples serially diluted seven times over two orders of magnitude, with 90-110% efficiency of amplification deemed acceptably linear). After qPCR plates were prepared by arraying sample-specific cDNAs and gene-specific primers, they were sealed and briefly centrifuged (5 mins). 384-well qPCR plates and their adhesive sealing sheets were obtained from Thermo (AB1384 and AB0558, respectively). qPCR plates were run on a 7900HT Fast Real-Time PCR System (Applied Biosystems) with the following cycling parameters: initial dissociation (95° C., 2 mins) followed by 40 cycles of amplification and SYBR signal detection (95° C. dissociation, 5 seconds; 60° C. annealing, 10 seconds; followed by 72° C. extension, 30 seconds), with a final series of steps to generate a dissociation curve at the end of each qPCR run. During qPCR data analysis, the fluorescence threshold to determine Ct values was set at the linear phase of amplification; other qPCR data analysis methods including qPCR heatmap generation using the GenePattern platform (Broad Institute) were described previously by Loh et al., 2014, the disclosure of which is incorporated herein by reference in its entirety.
E) To assess whether inducing PS in the presence of TGFβ signaling altered its downstream potential to form different kinds of mesoderm, (i) H7 hESCs were differentiated into PS with CHIR99021+FGF2+PIK90 (CFK) for 24 hours in the presence or absence of increasing amounts of Activin (10-100 ng/mL), and then were transferred into paraxial mesoderm induction conditions (A-83-01+CHIR99021+DM3189+FGF2) for 24 hrs, and qPCR was conducted or (ii) H7 hESCs were differentiated into PS with BMP4 (10 ng/mL)+CHIR99021+FGF2+PIK90 (B10CFK) for 24 hours in the presence or absence of increasing amounts of Activin (10-100 ng/mL), and then were transferred into lateral/cardiac mesoderm inductions (A-83-01+BMP4+C59) for 24 hours and qPCR was conducted. […] F) To assess whether inducing PS in the presence of BMP signaling altered its downstream potential to form different kinds of mesoderm, H7 hESCs were differentiated into PS with Activin (10 ng/mL)+CHIR99021+FGF2+PIK90 (A10CFK) for 24 hours in the presence of absence of increasing amounts of BMP4 (1-40 ng/mL), and then were (i) transferred into paraxial mesoderm induction conditions (A-83-01+CHIR99021+DM3189+FGF2) for 24 hrs, and qPCR was conducted or were (ii) transferred into lateral/cardiac mesoderm inductions (A-83-01+BMP4+C59) for 24 hours and qPCR was conducted. […] G) H7 hESCs were differentiated into anterior primitive streak (30 ng/mL Activin+4 μM CHIR99021+20 ng/mL FGF2+100 nM PIK90) in the presence or absence of BMP4 (10 ng/mL) for 24 hours, and then transferred into paraxial mesoderm induction conditions for 24 hours before TBX6 immunostaining was conducted. […]

[1] = tested on: hESC-derived cardiac mesoderm; experiment: Cardiac mesoderm differentiation into cardiovascular fates, qPCR; type: cell-based, human
Description: Day 2 lateral mesoderm was differentiated into day 4 cardiac mesoderm by treating them with 1 μM A8301+30 ng/mL BMP4+1 μM C59+20 ng/mL FGF2 for 48 hrs, or alternatively, with 1 μM A8301+30 ng/mL BMP4+20 ng/mL FGF2 for 24 hrs followed by 25 ng/mL Activin+30 ng/mL BMP4+1 μM C59 for the next 24 hrs (schema in FIG. 5E; positive effect of mid-stage Activin shown in FIG. 12K). Subsequently, day 4 cardiac mesoderm was briefly washed (DMEM/F12) and treated with 30 ng/mL BMP4+1 μM XAV939+200 μg/mL 2-phospho-ascorbic acid (Sigma) for 48-96 hrs to yield day 6-8 cardiomyocyte-containing populations. Spontaneously contracting cardiomyocyte foci were evident from day 8 onwards.
C) To reveal the possible identity of non-cardiac mesoderm lineages that were contaminating cardiac mesoderm-containing cultures, NKX2.5-GFP hESCs were differentiated towards mid primitive streak (day 1) and were differentiated towards a heterogeneous population containing cardiac mesoderm (day 3) by treatment with SB-505124+BMP4+C59 (without FGF2) on days 2-3 of differentiation. FACS was performed on day 3 to purify either NKX2.5-GFP^+ or NKX2.5-GFP^− cells (top subpanels) which were sorted for qPCR (bottom subpanels). Gene expression was normalized to expression of a gene in the NKX2.5-GFP^+ fraction (dotted line). D) Timecourse of gene expression in hESCs differentiating towards mid primitive streak and lateral mesoderm, with treatment by SB-505124+BMP4+C59 on days 2-3 of differentiation. […] G) To assess whether a stabilized vitamin C analog (ascorbic acid-2-phosphate) (AA2P) enhanced cardiac mesoderm differentiation into cardiomyocytes, day 4 hESC-derived cardiac mesoderm was exposed to BMP4 (30 ng/mL)+XAV939 (1 μM) for 48 hours in the presence or absence of 200 μg/mL AA2P and qPCR was conducted of day 6 populations; qPCR data were normalized such that expression values in the highest-expressing sample was normalized=1.0. […] J) In the mouse embryo, endocardium (progenitors to heart-affiliated endothelium) are marked by transient coexpression of pan-heart marker Nkx2.5 together with endothelial markers (Ferdous et al., 2009; Stanley et al., 2002).

Cc1cnc(-c2cnc(NCCNc3ccc(C#N)cn3)nc2-c2ccc(Cl)cc2Cl)[nH]1 [CHIR99021, 6-[[2-[[4-(2,4-Dichlorophenyl)-5-(5-methyl-1H-imidazol-2-yl)-2-pyrimidinyl]amino]ethyl]amino]-3-pyridinecarbonitrile] was tested, and the “PS marker expression (qPCR)” value (hESCs; 24 hours in A3B3F20, 300 ng/mL WNT3A or 0.5-8 μM CHIR99021) was “broadly induces both anterior (TBX6) and mid/posterior (FOXF1, MESP1) PS markers” and the “differentiation into cardiomyocytes (qPCR day 6)” value ([1]; BMP4 30 ng/mL with CHIR99021 3 μM, 48 hours) was “fully blocked cardiac mesoderm differentiation into cardiomyocytes”.

In the case of Cc1cccc(-c2[nH]c(C(C)(C)C)nc2-c2ccc3c(c2)OCO3)n1 [SB-505124, 2-[4-(1,3-Benzodioxol-5-yl)-2-(1,1-dimethylethyl)-1H-imidazol-5-yl]-6-methyl-pyridine], the PS differentiation (hESCs; CHIR99021+20 ng/mL FGF2+100 nM PIK90 with 2 μM SB-505124 or 1 μM A-83-01) is reported as “strongly impairs PS differentiation”.

B1: Activin: TGFβ agonist (protein, UniProt P08476 311-426, looked up)
Inhibin beta A chain: GLECDGKVNICCKKQFFVSFKDIGWNDWIIAPSGYHANYCEGECPSHIAGTSGSSLSFHSTVINHYRMRGHSPFANLKSCCVPTKLRPMSMLYYDDGQNIIKKDIQNMIVEECGCS
modifications: Inhibin beta A chain
notes: TGFβ agonist
B1 was tested, and the subsequent cardiomyocyte differentiation ([1]; day 3 cardiac mesoderm, BMP4+C59+FGF2 with Activin 25 ng/mL, 24 hours) was “enhanced subsequent cardiomyocyte differentiation”.

B2: BMP4: BMP family ligand, BMP agonist (protein, UniProt P12644 293-408, looked up)
Bone morphogenetic protein 4: SPKHHSQRARKKNKNCRRHSLYVDFSDVGWNDWIVAPPGYQAFYCHGDCPFPLADHLNSTNHAIVQTLVNSVNSSIPKACCVPTELSAISMLYLDEYDKVVLKNYQEMVVEGCGCR
With B2 the “PS formation and anterior-posterior patterning” value (hESCs; ACFK with LDN193189 250 nM or BMP4 3-100 ng/mL) was “induced posterior PS”, the “cardiovascular fate commitment (TNNT2, MYH6, MYH7)” value ([1]; XAV939 1 μM with BMP4 5-30 ng/mL, 48 hours) was “preferentially promotes commitment to cardiomyocyte fate” and the “cardiomyocyte and endothelial gene expression” value ([1]; day 4 cardiac mesoderm, BMP4 30 ng/mL, 48 hours) was “upregulation of both cardiomyocyte (myocardium) and endothelial (presumptive endocardium) genes”.
